Source: PMC11319775
Where two headings read alike, the source gives them in different places.

T1: TaHRP1:GST (UniProt A0A3B6H0D8 1-141)
T1 sequence: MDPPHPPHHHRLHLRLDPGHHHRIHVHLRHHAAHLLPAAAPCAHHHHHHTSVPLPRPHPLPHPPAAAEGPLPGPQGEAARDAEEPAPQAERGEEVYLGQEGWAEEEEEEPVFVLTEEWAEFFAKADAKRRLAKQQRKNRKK

B1: Probe-DNA (HBS promoter probe) (dsDNA)
DNA 1: AAAACCAAAATAACTAGTTAAAGAAGAATGAAAGAGTTAAATTCCATTTATTTTT
DNA 2: AAAAATAAATGGAATTTAACTCTTTCATTCTTCTTTAACTAGTTATTTTGGTTTT
B2: mProbe-DNA (HBS mutated) (dsDNA)
DNA 1: AAAACCAAAATAACTAGTTAGGCGGCGGTGAAAGAGTTAAATTCCATTTATTTTT
DNA 2: AAAAATAAATGGAATTTAACTCTTTCACCGCCGCCTAACTAGTTATTTTGGTTTT

Experiments:
TaHRP1:GST [1] = molecular target: T1, TaHRP1:GST; test: EMSA
TaHRP1:GST [2] = molecular target: T1, TaHRP1:GST; test: EMSA; remark: listed apart in the source

Binder	binding result (TaHRP1:GST [1])	binding result (TaHRP1:GST [2])
B1	binds	
B2		no binding
